We go through 2 proteins from article doi:10.1101/299487 (bioRxiv, 2018).

Read-outs that look alike come from different tables or passages of the source.

Data set [1] concerns the molecule itself. Nature of the data set: cryo-EM structure.
Data set [2] concerns the molecule itself. Nature of the data set: cryo-EM structure. The source holds these as a separate data set.

B1: Dam1C/DASH heterodecamer (recombinant) (complex, yeast (budding yeast))
chain 1: MSEDKAKLGTTRSATEYRLSIGSAPTSRRSSMGESSSLMKFADQEGLTSSVGEYNENTIQQLLLPKIRELSDSIITLDSNFTRLNFIHESLADLNESLGSLLYGIMSNSWCVEFSQAPHDIQDDLIAIKQLKSLEDEKNNLVMELSNMERGIKRKKDEQGENDLAKASQNKQFNQPLFPSSQVRKYRSYDNRDKRKPSKIGNNLQVENEEDYEDDTSSEASFVLNPTNIGMSKSSQGHVTKTTRLNNNTNSKLRRKSILHTIRNSIASGADLPIENDNVVNLGDLHPNNRISLGSGAARVVNGPVTKNRNSMFSGRAERKPTESRHSVAKKTEKKINTRPPFR
chain 2: MMASTSNDEEKLISTTDKYFIEQRNIVLQEINETMNSILNGLNGLNISLESSIAVGREFQSVSDLWKTLYDGLESLSDEAPIDEQPTLSQSKTK
chain 3: MDSIDEQIAIKRKELQSLQKITSLTDGLKIQLTELNEQIKEMGMNADSVAQLMNNWDSIINNISQASLGLLQYAEGDYEIGPWKDSKKKESEQSNETGLEAQENDKNDEDNDEDEDLVPLPETMVRIRVDGNE
chain 4: MEHNLSPLQQEVLDKYKQLSLDLKALDETIKELNYSQHRQQHSQQETVSPDEILQEMRDIEVKIGLVGTLLKGSVYSLILQRKQEQESLGSNSK
chain 5: MENPHEQVQANILSRIIGNVKRLNESVAILNQELVTINNRNKNLEIMGAICDNYHSSVQFNLEATNNKKPPL
chain 6: MSEQSQLDDSTIDKLIPQIFNEMRSNLNNTTNKFPKSTGGGASDNISANSNSIRSFNSITTQSLLKESESLDKITAMIKNVTAALKNNLPVYVNQVHEVCKSTNSILDSWINIHSQAGYIHKLMSDQTYLKLINDRLHNENVNTNDEDGSTLHNVIALKKKEILDLRQKLENRKGEKDAAPAKPPNQGLNPRYGVQSGRRPVPSAGISNNGRVRKTHVPASKRPSGIPRVTNRWTKPTASSSRKMFR
chain 7: MDSASKEETLEKLDQEITVNLQKIDSNLSFCFHKITQDIIPHVATYSEICERIMDSTEWLGTMFQETGLVNLQANAAAPVGNAPVKSLVSNNVGIFPTSAEEASRQSQTDNGPNEADSAVHVNRDVHSMFNNDSIDDFHTANITSTGQILKLPDSSDEDTGSEAVPSREQTDLTGEGHGGADDEQDESTIQRQSRKRKISLLLQQQYGSSSSMVPSPIVPNKMRKQLAHEEHINNDGDNDDENSNNIESSPLKQGHHHPKGQADDNNEGPDEEESTKEVPKPGTIIHFSTNR
chain 8: MTDALEQSVLALEGTVSVLKDSVESLKCANEPSTNLASTMLQTKRVFRLVPEYDVERSKLDLIEEVEPLVRTLGDKLRKSMGRMQRELDTLQQTYELNDLRLKKNISMDDDDALNSPDMGQEYEGRDADDVVMMASSTNEELEELKKLKEKKKQLENKLEILKQK
chain 9: MGESLDRCIDDINRAVDSMSTLYFKPPGIFHNAILQGASNKASIRKDITRLIKDCNHDEAYLLFKVNPEKQSVSRRDGKEGVFDYVIKRDTDMKRNRRLGRPGEKPIIHVPKEVYLNKDRLDLNNKRRRTATTSGGGLNGFIFDTDLIGSSVISNSSSGTFKALSAVFKDDPQIQRLLYALENGSVLMEEESNNQRRKTIFVEDFPTDLILKVMAEVTDLWPLTEFKQDYDQLYHNYEQLSSKLRFIKKEVLLQDDRLKTMSQYHPSSSHDVAKIIRKEKDEIRRLEMEIANLQE
chain 10: MNANKQRQYNQLAHELRELQTNLQETTKQLDIMSKQCNENLVGQLGKVHGSWLIGSYIYYMEQMLGKTQ
Consider B1, for which the “stoichiometry N” value in data set [1] stood at 17.

B2: Dam1C/DASH outer-kinetochore complex in yeast cells (complex)
chain 1: MSEDKAKLGTTRSATEYRLSIGSAPTSRRSSMGESSSLMKFADQEGLTSSVGEYNENTIQQLLLPKIRELSDSIITLDSNFTRLNFIHESLADLNESLGSLLYGIMSNSWCVEFSQAPHDIQDDLIAIKQLKSLEDEKNNLVMELSNMERGIKRKKDEQGENDLAKASQNKQFNQPLFPSSQVRKYRSYDNRDKRKPSKIGNNLQVENEEDYEDDTSSEASFVLNPTNIGMSKSSQGHVTKTTRLNNNTNSKLRRKSILHTIRNSIASGADLPIENDNVVNLGDLHPNNRISLGSGAARVVNGPVTKNRNSMFSGRAERKPTESRHSVAKKTEKKINTRPPFR
chain 2: MMASTSNDEEKLISTTDKYFIEQRNIVLQEINETMNSILNGLNGLNISLESSIAVGREFQSVSDLWKTLYDGLESLSDEAPIDEQPTLSQSKTK
chain 3: MDSIDEQIAIKRKELQSLQKITSLTDGLKIQLTELNEQIKEMGMNADSVAQLMNNWDSIINNISQASLGLLQYAEGDYEIGPWKDSKKKESEQSNETGLEAQENDKNDEDNDEDEDLVPLPETMVRIRVDGNE
chain 4: MEHNLSPLQQEVLDKYKQLSLDLKALDETIKELNYSQHRQQHSQQETVSPDEILQEMRDIEVKIGLVGTLLKGSVYSLILQRKQEQESLGSNSK
chain 5: MENPHEQVQANILSRIIGNVKRLNESVAILNQELVTINNRNKNLEIMGAICDNYHSSVQFNLEATNNKKPPL
chain 6: MSEQSQLDDSTIDKLIPQIFNEMRSNLNNTTNKFPKSTGGGASDNISANSNSIRSFNSITTQSLLKESESLDKITAMIKNVTAALKNNLPVYVNQVHEVCKSTNSILDSWINIHSQAGYIHKLMSDQTYLKLINDRLHNENVNTNDEDGSTLHNVIALKKKEILDLRQKLENRKGEKDAAPAKPPNQGLNPRYGVQSGRRPVPSAGISNNGRVRKTHVPASKRPSGIPRVTNRWTKPTASSSRKMFR
chain 7: MDSASKEETLEKLDQEITVNLQKIDSNLSFCFHKITQDIIPHVATYSEICERIMDSTEWLGTMFQETGLVNLQANAAAPVGNAPVKSLVSNNVGIFPTSAEEASRQSQTDNGPNEADSAVHVNRDVHSMFNNDSIDDFHTANITSTGQILKLPDSSDEDTGSEAVPSREQTDLTGEGHGGADDEQDESTIQRQSRKRKISLLLQQQYGSSSSMVPSPIVPNKMRKQLAHEEHINNDGDNDDENSNNIESSPLKQGHHHPKGQADDNNEGPDEEESTKEVPKPGTIIHFSTNR
chain 8: MTDALEQSVLALEGTVSVLKDSVESLKCANEPSTNLASTMLQTKRVFRLVPEYDVERSKLDLIEEVEPLVRTLGDKLRKSMGRMQRELDTLQQTYELNDLRLKKNISMDDDDALNSPDMGQEYEGRDADDVVMMASSTNEELEELKKLKEKKKQLENKLEILKQK
chain 9: MGESLDRCIDDINRAVDSMSTLYFKPPGIFHNAILQGASNKASIRKDITRLIKDCNHDEAYLLFKVNPEKQSVSRRDGKEGVFDYVIKRDTDMKRNRRLGRPGEKPIIHVPKEVYLNKDRLDLNNKRRRTATTSGGGLNGFIFDTDLIGSSVISNSSSGTFKALSAVFKDDPQIQRLLYALENGSVLMEEESNNQRRKTIFVEDFPTDLILKVMAEVTDLWPLTEFKQDYDQLYHNYEQLSSKLRFIKKEVLLQDDRLKTMSQYHPSSSHDVAKIIRKEKDEIRRLEMEIANLQE
chain 10: MNANKQRQYNQLAHELRELQTNLQETTKQLDIMSKQCNENLVGQLGKVHGSWLIGSYIYYMEQMLGKTQ
For the protein B2, in data set [2], the “stoichiometry N” value came to 17.

Usually stoichiometry N stands for the number of molecules, sites or subunits per partner or assembly.
